Laboratory results reported in US20230129258A1, “HETEROTANDEM BICYCLIC PEPTIDE COMPLEXES” (BicycleTx Limited, priority 2019, published 2023).
Starred links: 1 amine or outer side, 2 acyl side, 3 side chain; linkers in the order of their positions; H or OH if unused. Positions of bridges follow the written chain, without caps; N, C: chain ends. Non-standard residues stand in square brackets, D forms with d. Chains are numbered I, II in the order given. No end group written: not given here. *: point of attachment. TATA = O=C(CC[*:1])N1CN(C(=O)CC[*:2])CN(C(=O)CC[*:3])C1; Dip = N[C@H](C(=O)O)C(c1ccccc1)c1ccccc1; d1Nal = N[C@H](Cc1cccc2ccccc12)C(=O)O; Hyp = O=C(O)[C@@H]1C[C@@H](O)CN1; hArg = N=C(N)NCCCC[C@H](N)C(=O)O; tBuAla = CC(C)(C)C[C@H](N)C(=O)O; Cba = N[C@@H](CC1CCC1)C(=O)O; dK(PYA) = not defined here; NMeA = CN[C@@H](C)C(=O)O; Nle = CCCC[C@H](N)C(=O)O; Pent4ynoyl = C#CCCC(=O)*; Mpa = O=C(O)CCS

B1: BCY12977 (peptide)
peptide 1: A[hArg]DC[Hyp]LVNPLCLHP[dE]W[hArg]C
peptide 2: Ac-C[tBuAla]PE[dK(PYA)]PYCFADPY[Nle]CA
modifications: linker I:4-I:11-I:18, II:1-II:8-II:15 via TATA; linker II:N-II:5 via N‑(acid-PEG3)‑N‑bis(PEG3-azide); reading uncertain; also: two CD137 bicycles per complex (EphA2:CD137 1:2)
B2: BCY13047 (peptide)
peptide 1: A[hArg]DC[Hyp]LVNPLCL[Dip]P[dD]WTC
peptide 2: Ac-C[tBuAla]PE[dK(PYA)]PYCFADPY[Nle]CA
modifications: linker I:4-I:11-I:18, II:1-II:8-II:15 via TATA; not fully specified (N-terminus, bridges); reading uncertain; also: two CD137 bicycles per complex (EphA2:CD137 1:2)
B3: BCY13138 (peptide)
peptide 1: A[hArg]DC[Hyp]LVNPLCLEP[dD]WTC
peptide 2: [Mpa][tBuAla]PE[dK(PYA)]PYCFADPY[Nle]C
modifications: linker I:4-I:11-I:18, II:1-II:8-II:15 via TATA (inferred); not fully specified (N-terminus); reading uncertain; also: linker joins chain 1 to two chain 2 copies via PYA triazoles
B4: BCY12973 (peptide)
peptide 1: Ac-A[hArg]DC[Hyp]LVNPLCLHP[dD]W[hArg]CK
peptide 2: Ac-C[tBuAla]PE[dK(PYA)]PYCFADPY[Nle]CA
modifications: linker I:4-I:11-I:18, II:1-II:8-II:15 via TATA; linker I:19-II:5 via N‑(acid-PEG3)‑N‑bis(PEG3-azide); reading uncertain; also: two CD137 bicycles per complex (EphA2:CD137 1:2)
B5: BCY12976 (peptide)
peptide 1: Ac-A[hArg]DC[Hyp]LVNPLCKHP[dD]W[hArg]C
peptide 2: Ac-C[tBuAla]PE[dK(PYA)]PYCFADPY[Nle]CA
modifications: linker I:4-I:11-I:18, II:1-II:8-II:15 via TATA; linker I:12-II:5 via N‑(acid-PEG3)‑N‑bis(PEG3-azide); reading uncertain; also: two CD137 bicycles per complex (EphA2:CD137 1:2)
B6: BCY12979 (peptide)
peptide 1: A[hArg]DC[Hyp]LVNPLCLHP[dD]W[hArg]C
peptide 2: Ac-C[tBuAla]PE[dK(PYA)]PYCFADPY[Nle]CA
modifications: linker I:4-I:11-I:18, II:1-II:8-II:15 via TATA; not fully specified (bridges); reading uncertain; also: two CD137 bicycles per complex (EphA2:CD137 1:2)
B7: BCY13052 (peptide)
peptide 1: [dA][hArg]DC[Hyp][Cba]VNPLCLEP[dD]WTC[dA]
peptide 2: Ac-C[tBuAla]PE[dK](Pent4ynoyl)PYCFADPY[Nle]CA
modifications: linker I:4-I:11-I:18, II:1-II:8-II:15 via TATA (inferred); not fully specified (N-terminus); also: chain 2: linker at dLys(PYA)4 (place not given here by letters), linker N-(acid-PEG3)-N-bis(PEG3-azide) joins N-terminus of chain 1 to dLys(PYA) of chain 2
B8: BCY12975 (peptide)
peptide 1: Ac-A[hArg]DC[Hyp]KVNPLCLHP[dD]W[hArg]C
peptide 2: Ac-C[tBuAla]PE[dK(PYA)]PYCFADPY[Nle]CA
modifications: linker I:4-I:11-I:18, II:1-II:8-II:15 via TATA; linker I:6-II:5 via N‑(acid-PEG3)‑N‑bis(PEG3-azide); reading uncertain; also: two CD137 bicycles per complex (EphA2:CD137 1:2)
B9: BCY13276 (peptide)
peptide 1: [NMeA][hArg]DC[Hyp]LVNPLCLEP[dD]WTC
peptide 2: Ac-C[tBuAla]PE[dK](Pent4ynoyl)PYCFADPY[Nle]CA
modifications: linker I:4-I:11-I:18, II:1-II:8-II:15 via TATA; not fully specified (N-terminus, bridges); also: linker joins chain 1 to two chain 2 copies via PYA triazoles
B10: BCY13275 (peptide)
peptide 1: [NMeA][hArg]DC[Hyp]LVNPLCLHP[dD]W[hArg]C
peptide 2: Ac-C[tBuAla]PE[dK](Pent4ynoyl)PYCFADPY[Nle]CA
modifications: linker I:4-I:11-I:18, II:1-II:8-II:15 via TATA; not fully specified (N-terminus, bridges); also: linker joins chain 1 to two chain 2 copies via PYA triazoles
B11: BCY13270 (peptide)
peptide 1: A[hArg]DC[Hyp]LVNPLCLHP[d1Nal]W[hArg]C
peptide 2: Ac-C[tBuAla]PE[dK](Pent4ynoyl)PYCFADPY[Nle]CA
modifications: linker I:4-I:11-I:18, II:1-II:8-II:15 via TATA; not fully specified (N-terminus, bridges); also: linker joins chain 1 to two chain 2 copies via PYA triazoles
B12: BCY14335 (peptide)
peptide 1: {Palmitoyl‑Glu‑LysN3-Pent4ynoyl}-A[hArg]DC[Hyp]LVNPLCLKP[dD]W[hArg]C
peptide 2: Ac-C[tBuAla]PE[dK](Pent4ynoyl)PYCFADPY[Nle]CA
modifications: linker I:4-I:11-I:18, II:1-II:8-II:15 via TATA (inferred); not fully specified; also: 1:2 complex: chain 1 Lys ('Lys 8') joined to dLys(PYA)5 of two chain 2 copies via N-(acid-PEG3)-N-bis(PEG3-azide) linker
B13: BCY13140 (peptide)
peptide 1: A[hArg]DC[Hyp]LVNPLCLEP[dD]WTC
peptide 2: [Mpa][tBuAla]EE[dK](Pent4ynoyl)PYCFADPY[Nle]C
modifications: linker I:4-I:11-I:18, II:1-II:8-II:15 via TATA; not fully specified (N-terminus); also: linker joins chain 1 to two chain 2 copies via PYA triazoles
B14: BCY14334 (peptide)
peptide 1: A[hArg]DC[Hyp]LVNPLCLKP[dD]W[hArg]C
peptide 2: Ac-C[tBuAla]PE[dK](Pent4ynoyl)PYCFADPY[Nle]CA
modifications: linker I:4-I:11-I:18 via TATA; linker II:1-II:8-II:15 via TATA (inferred); not fully specified (some residues); also: N-(acid-PEG3)-N-bis(PEG3-azide) linker at chain 1 N-terminus, joined to dLys(PYA)4 of two BCY8928 chains (1:2 complex)
B15: BCY13139 (peptide)
peptide 1: A[hArg]DC[Hyp]LVNPLCLHP[dD]W[hArg]C
peptide 2: [Mpa][tBuAla]EE[dK](Pent4ynoyl)PYCFADPY[Nle]C
modifications: linker I:4-I:11-I:18, II:1-II:8-II:15 via TATA; not fully specified (N-terminus); also: linker joins chain 1 to two chain 2 copies via PYA triazoles
B16: BCY13050 (peptide)
peptide 1: A[hArg]DC[Hyp][Cba]VNPLCLHP[dD]W[hArg]C
peptide 2: Ac-C[tBuAla]PE[dK](Pent4ynoyl)PYCFADPY[Nle]CA
modifications: linker I:4-I:11-I:18, II:1-II:8-II:15 via TATA; not fully specified (N-terminus, bridges); also: linker joins chain 1 to two chain 2 copies via PYA triazoles
B17: BCY13054 (peptide)
peptide 1: A[hArg]DC[Hyp]LVNPLCL[Dip]P[dD]W[hArg]C
peptide 2: Ac-C[tBuAla]PE[dK](Pent4ynoyl)PYCFADPY[Nle]CA
modifications: linker I:4-I:11-I:18, II:1-II:8-II:15 via TATA; not fully specified (N-terminus, bridges); also: linker joins chain 1 to two chain 2 copies via PYA triazoles
B18: BCY13051 (peptide)
peptide 1: A[hArg]DC[Hyp][Cba]VNPLCLEP[dD]WTC
peptide 2: Ac-C[tBuAla]PE[dK](Pent4ynoyl)PYCFADPY[Nle]CA
modifications: linker I:4-I:11-I:18, II:1-II:8-II:15 via TATA; not fully specified (N-terminus, bridges); also: linker joins chain 1 to two chain 2 copies via PYA triazoles

Target: CD137 on Jurkat reporter cells (Promega kit CS196005) (UniProt Q07011)
Experiment: cell-based or functional assay

CD137 on Jurkat reporter cells (Promega kit CS196005), sequence (Q07011 24-255 limits assumed): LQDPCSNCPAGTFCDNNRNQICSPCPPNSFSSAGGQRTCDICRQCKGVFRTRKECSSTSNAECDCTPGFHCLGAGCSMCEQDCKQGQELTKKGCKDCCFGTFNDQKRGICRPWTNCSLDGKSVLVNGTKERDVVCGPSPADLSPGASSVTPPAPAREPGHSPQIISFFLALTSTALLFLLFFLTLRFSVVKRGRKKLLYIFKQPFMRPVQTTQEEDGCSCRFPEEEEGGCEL

Binder | EC50 (nM), PC3 co-culture | Emax (fold induction over background), PC3 (fold over background) | Fold Improvement over BCY9173, EC50, PC3 | Fold Improvement over Emax (BCY9173), PC3
B1 | 0.08 nM | 67.2 |  | 
B2 | 0.07 nM | 46.4 |  | 
B3 | 0.17 nM | 32.6 |  | 
B4 | 0.16 nM | 48.6 |  | 
B5 | 0.18 nM | 73.2 |  | 
B6 | 0.08 nM | 71.6 |  | 
B7 | 0.21 nM | 32.9 |  | 
B8 | 0.16 nM | 68.8 |  | 
B9 | 0.1 nM | 50.5 |  | 
B10 | 0.08 nM | 47.5 |  | 
B11 | 0.1 nM | 42.5 |  | 
B12 |  |  | 7.14 fold | 0.94 fold
B13 | 0.12 nM | 46.7 |  | 
B14 |  |  | 7.21 fold | 1.62 fold
B15 | 0.16 nM | 43.8 |  | 
B16 | 0.09 nM | 42.5 |  | 
B17 | 0.07 nM | 36.5 |  | 
B18 | 0.21 nM | 37 |  | 
